From article PMC7346168, “Redox Conformation-Specific Protein–Protein Interactions of the 2-Cysteine Peroxiredoxin in Arabidopsis” (Antioxidants, 2020)
Positions count from the first letter of the chain named.

T1: 2-CysPRXA C54S (pseudo-reduced variant) (Arabidopsis, UniProt Q96291 66-266, C54S)
T1 sequence: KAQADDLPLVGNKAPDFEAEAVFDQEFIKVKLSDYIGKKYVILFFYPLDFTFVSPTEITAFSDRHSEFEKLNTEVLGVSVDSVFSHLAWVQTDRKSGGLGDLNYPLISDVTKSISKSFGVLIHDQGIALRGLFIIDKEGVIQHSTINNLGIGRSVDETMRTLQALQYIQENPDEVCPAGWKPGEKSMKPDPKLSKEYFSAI

T2: 2-CysPRXA C54S (pseudo-reduced variant) (Arabidopsis, UniProt Q96291 66-266, C54S)
T2 construct: 2-Cys peroxiredoxin A, Arabidopsis; source: E. coli BL21, recombinant (pET28a)
T2 sequence (looked up): T1 sequence

T3: 2-cysteine peroxiredoxin A, wild type (2-CysPRXA WT) (Arabidopsis, UniProt Q96291 66-266)
T3 sequence (looked up): T1 sequence with S54C

T4: 2-cysteine peroxiredoxin A, wild type (2-CysPRXA WT) (Arabidopsis, UniProt Q96291 66-266)
T4 chain: T1 sequence with S54C

B1: CHLOROPLAST PROTEIN 12-1, recombinant hisx6-tagged (natural protein, Arabidopsis thaliana, UniProt O22914 48-124, looked up)
chain: TSEGEISEKVEKSIQEAKETCADDPVSGECVAAWDEVEELSAAASHARDKKKAGGSDPLEEYCNDNPETDECRTYDN
notes: Calvin cycle protein CP12-1, Arabidopsis thaliana; also called CP12-1; CHLOROPLAST REGULATOR; source: E. coli BL21, recombinant
B2: LIPOXYGENASE 2, recombinant hisx6-tagged (enzyme, Arabidopsis thaliana, UniProt P38418 71-896, looked up)
chain: QNIKVKGYITAQEEFLEGITWSRGLDDIADIRGRSLLVELISAKTDQRITVEDYAQRVWAEAPDEKYECEFEMPEDFGPVGAIKIQNQYHRQLFLKGVELKLPGGSITFTCESWVAPKSVDPTKRIFFSDKSYLPSQTPEPLKKYRKEELETLQGKNREEVGEFTKFERIYDYDVYNDVGDPDNDPELARPVIGGLTHPYPRRCKTGRKPCETDPSSEQRYGGEFYVPRDEEFSTAKGTSFTGKAVLAALPSIFPQIESVLLSPQEPFPHFKAIQNLFEEGIQLPKDAGLLPLLPRIIKALGEAQDDILQFDAPVLINRDRFSWLRDDEFARQTLAGLNPYSIQLVEEWPLISKLDPAVYGDPTSLITWEIVEREVKGNMTVDEALKNKRLFVLDYHDLLLPYVNKVRELNNTTLYASRTLFFLSDDSTLRPVAIELTCPPNINKPQWKQVFTPGYDATSCWLWNLAKTHAISHDAGYHQLISHWLRTHACTEPYIIAANRQLSAMHPIYRLLHPHFRYTMEINARARQSLVNGGGIIETCFWPGKYALELSSAVYGKLWRFDQEGLPADLIKRGLAEEDKTAEHGVRLTIPDYPFANDGLILWDAIKEWVTDYVKHYYPDEELITSDEELQGWWSEVRNIGHGDKKDEPWWPVLKTQDDLIGVVTTIAWVTSGHHAAVNFGQYGYGGYFPNRPTTTRIRMPTEDPTDEALKEFYESPEKVLLKTYPSQKQATLVMVTLDLLSTHSPDEEYIGEQQEASWANEPVINAAFERFKGKLQYLEGVIDERNVNITLKNRAGAGVVKYELLKPTSEHGVTGMGVPYSISI
notes: Lipoxygenase 2, Arabidopsis thaliana; the limits follow from them; also called LOX2; 13-LIPOXYGENASE; source: E. coli BL21, recombinant (pET15b)

What was measured:
[1] = target: T1, 2-CysPRXA C54S (pseudo-reduced variant); assay: ITC; oxidized (unit printed as M)
[2] = target: T2, 2-CysPRXA C54S (pseudo-reduced variant); assay: ITC; CP12-1 injected into 2-CysPRXA C54S under oxidizing conditions (proteins treated with 1 mM H2O2, dialysed); 35 mM HEPES pH 8.0; conditions: both partners purified
[3] = target: T3, 2-cysteine peroxiredoxin A, wild type …; assay: cell-based or functional assay
[4] = target: T4, 2-cysteine peroxiredoxin A, wild type …; assay: ITC; reduced (unit printed as M)
[5] = target: T3, 2-cysteine peroxiredoxin A, wild type …; assay: ITC; LOX2 injected into 2-CysPRX WT under reducing conditions (proteins treated with 10 mM DTT, dialysed); 35 mM HEPES pH 8.0; conditions: both partners purified

Binder	Ka [1] [M⁻¹]	stoichiometry N [2]	LOX2-catalysed peroxidation of α-linolenic acid (absorbance at 234 nm), 0.5 µM LOX2 with 0.5 µM oxidized 2-CysPRXA; rate against LOX2 alone [3] [fold]	LOX2-catalysed peroxidation of α-linolenic acid (absorbance at 234 nm), 0.5 µM LOX2 with 0.5 µM reduced 2-CysPRXA; rate against LOX2 alone [3] [fold]	Ka [4] [M⁻¹]	stoichiometry N [5]
B1	3.91e+06	~1	–	–	–	–
B2	–	–	2.4	1.4	4.18e+07	~1
